Laboratory results as given in the supplement of paper PMC9112550, “Optimization of the antimicrobial peptide Bac7 by deep mutational scanning” (BMC Biology, 2022).
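Note: peptides expressed intracellularly from a pBAD plasmid library in pooled LB shake-flask culture, induced with 0.3% L-arabinose, DNA abundance read by NGS, three biological replicates, DESeq2 with apeglm shrinkage.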

The sequences below were run on Escherichia coli TOP10 (assay: shrunken log2 fold change of peptide-encoding DNA abundance (4.5 h post-induction vs induction); higher = less antimicrobial activity (less host growth inhibition)). Settings: time post-induction: 4.5 h; library: site-saturation at positions 5, 18, 19, 20.
In the case of RRIRARPPRLPRPRPRPGPNPRP, the “shrunken log2 fold change” value is reported as 0.66.
With RRIRQRPPRLPRPRPRPDDTPRP the “shrunken log2 fold change” value was 0.00151.
In the case of RRIRARPPRLPRPRPRPMLQPRP, the “shrunken log2 fold change” value is reported as 0.454.
RRIRERPPRLPRPRPRPLEAPRP was tested, and the “shrunken log2 fold change” value was 0.105.
RRIRKRPPRLPRPRPRPAKSPRP was tested, and the “shrunken log2 fold change” value was 0.254.
In the case of RRIRGRPPRLPRPRPRPMKIPRP, the “shrunken log2 fold change” value is reported as 0.533.
RRIRRRPPRLPRPRPRPDTEPRP was tested, and the “shrunken log2 fold change” value was 0.0209.
RRIRSRPPRLPRPRPRPIYQPRP was tested, and the “shrunken log2 fold change” value was -0.158.
In the case of RRIRSRPPRLPRPRPRPLSKPRP, the “shrunken log2 fold change” value is reported as -0.0737.
For RRIRYRPPRLPRPRPRPKAVPRP, the “shrunken log2 fold change” value was -0.163.
In the case of RRIRIRPPRLPRPRPRPEYDPRP, the “shrunken log2 fold change” value is reported as 0.0262.
RRIRDRPPRLPRPRPRPKRLPRP was tested, and the “shrunken log2 fold change” value was -0.0451.
For RRIRIRPPRLPRPRPRPWSFPRP, the “shrunken log2 fold change” value was -0.0245.
For RRIRTRPPRLPRPRPRPWWHPRP, the “shrunken log2 fold change” value was -0.279.
RRIRYRPPRLPRPRPRPGWAPRP was tested, and the “shrunken log2 fold change” value was 0.0172.
RRIRRRPPRLPRPRPRPTHMPRP was tested, and the “shrunken log2 fold change” value was 0.577.
For RRIRQRPPRLPRPRPRPERIPRP, the “shrunken log2 fold change” value was -0.328.
RRIRERPPRLPRPRPRPRDPPRP was tested, and the “shrunken log2 fold change” value was 0.0576.
For RRIRNRPPRLPRPRPRPGPYPRP, the “shrunken log2 fold change” value was -0.00784.
With RRIRFRPPRLPRPRPRPYHTPRP the “shrunken log2 fold change” value was -0.0117.
With RRIRARPPRLPRPRPRPRWSPRP the “shrunken log2 fold change” value was 0.53.
RRIRQRPPRLPRPRPRPNFGPRP was tested, and the “shrunken log2 fold change” value was -0.0871.
With RRIRRRPPRLPRPRPRPFDQPRP the “shrunken log2 fold change” value was 0.0321.
With RRIRARPPRLPRPRPRPHRVPRP the “shrunken log2 fold change” value was -0.13.
In the case of RRIRIRPPRLPRPRPRPIMGPRP, the “shrunken log2 fold change” value is reported as -0.08.
With RRIRLRPPRLPRPRPRPQVTPRP the “shrunken log2 fold change” value was 0.0952.
With RRIRFRPPRLPRPRPRPIVPPRP the “shrunken log2 fold change” value was 0.0537.
RRIRPRPPRLPRPRPRPYSGPRP was tested, and the “shrunken log2 fold change” value was -0.524.
In the case of RRIRGRPPRLPRPRPRPCTFPRP, the “shrunken log2 fold change” value is reported as 0.0341.
With RRIRYRPPRLPRPRPRPLYFPRP the “shrunken log2 fold change” value was -1.15.
For RRIRCRPPRLPRPRPRPKVPPRP, the “shrunken log2 fold change” value was -0.0562.
RRIRLRPPRLPRPRPRPALPPRP was tested, and the “shrunken log2 fold change” value was 0.128.
In the case of RRIRGRPPRLPRPRPRPMGKPRP, the “shrunken log2 fold change” value is reported as 0.375.
With RRIRMRPPRLPRPRPRPDMMPRP the “shrunken log2 fold change” value was 0.187.
With RRIRNRPPRLPRPRPRPWNCPRP the “shrunken log2 fold change” value was -0.0415.
For RRIRMRPPRLPRPRPRPMIFPRP, the “shrunken log2 fold change” value was 0.0369.
For RRIRLRPPRLPRPRPRPDMVPRP, the “shrunken log2 fold change” value was -0.175.
RRIRARPPRLPRPRPRPRIRPRP was tested, and the “shrunken log2 fold change” value was 0.322.
RRIRCRPPRLPRPRPRPYMCPRP was tested, and the “shrunken log2 fold change” value was -0.233.
RRIRPRPPRLPRPRPRPDHLPRP was tested, and the “shrunken log2 fold change” value was -0.172.
In the case of RRIRHRPPRLPRPRPRPLPEPRP, the “shrunken log2 fold change” value is reported as 0.126.
For RRIRSRPPRLPRPRPRPPGCPRP, the “shrunken log2 fold change” value was 0.676.
In the case of RRIRARPPRLPRPRPRPEGMPRP, the “shrunken log2 fold change” value is reported as 1.2.
With RRIRDRPPRLPRPRPRPHMMPRP the “shrunken log2 fold change” value was 0.158.
For RRIRFRPPRLPRPRPRPGYGPRP, the “shrunken log2 fold change” value was 0.019.
In the case of RRIRCRPPRLPRPRPRPVFVPRP, the “shrunken log2 fold change” value is reported as -0.136.
For RRIRARPPRLPRPRPRPGILPRP, the “shrunken log2 fold change” value was 0.287.
RRIRVRPPRLPRPRPRPWTTPRP was tested, and the “shrunken log2 fold change” value was 0.115.
For RRIRIRPPRLPRPRPRPDHEPRP, the “shrunken log2 fold change” value was 0.147.
RRIRSRPPRLPRPRPRPNTVPRP was tested, and the “shrunken log2 fold change” value was -0.308.
With RRIRSRPPRLPRPRPRPQYNPRP the “shrunken log2 fold change” value was -0.863.
RRIRPRPPRLPRPRPRPFVFPRP was tested, and the “shrunken log2 fold change” value was -0.2.
With RRIRIRPPRLPRPRPRPHHDPRP the “shrunken log2 fold change” value was -0.515.
In the case of RRIRRRPPRLPRPRPRPCAKPRP, the “shrunken log2 fold change” value is reported as 0.164.
For RRIRQRPPRLPRPRPRPNMFPRP, the “shrunken log2 fold change” value was 0.0369.
With RRIRVRPPRLPRPRPRPGRVPRP the “shrunken log2 fold change” value was 0.405.
RRIRWRPPRLPRPRPRPWPIPRP was tested, and the “shrunken log2 fold change” value was 0.0793.
RRIRDRPPRLPRPRPRPCDVPRP was tested, and the “shrunken log2 fold change” value was -0.0231.
For RRIRYRPPRLPRPRPRPTHKPRP, the “shrunken log2 fold change” value was -0.329.
RRIRARPPRLPRPRPRPCGWPRP was tested, and the “shrunken log2 fold change” value was 0.365.
With RRIRSRPPRLPRPRPRPAAMPRP the “shrunken log2 fold change” value was 0.852.
In the case of RRIRRRPPRLPRPRPRPADAPRP, the “shrunken log2 fold change” value is reported as 0.249.
RRIRMRPPRLPRPRPRPYESPRP was tested, and the “shrunken log2 fold change” value was 0.107.
For RRIRSRPPRLPRPRPRPLRCPRP, the “shrunken log2 fold change” value was 0.435.
RRIRCRPPRLPRPRPRPLTVPRP was tested, and the “shrunken log2 fold change” value was -0.483.
In the case of RRIRLRPPRLPRPRPRPDWVPRP, the “shrunken log2 fold change” value is reported as -0.0945.
For RRIRMRPPRLPRPRPRPRGNPRP, the “shrunken log2 fold change” value was 0.37.
In the case of RRIRYRPPRLPRPRPRPERHPRP, the “shrunken log2 fold change” value is reported as -0.0384.
With RRIRMRPPRLPRPRPRPIGEPRP the “shrunken log2 fold change” value was 0.0433.
With RRIRPRPPRLPRPRPRPTHMPRP the “shrunken log2 fold change” value was 0.255.
In the case of RRIRCRPPRLPRPRPRPEQYPRP, the “shrunken log2 fold change” value is reported as -0.322.
RRIRMRPPRLPRPRPRPQWTPRP was tested, and the “shrunken log2 fold change” value was 0.0242.
For RRIRQRPPRLPRPRPRPVQAPRP, the “shrunken log2 fold change” value was -0.0131.
RRIRPRPPRLPRPRPRPINMPRP was tested, and the “shrunken log2 fold change” value was -0.503.
RRIRSRPPRLPRPRPRPNTWPRP was tested, and the “shrunken log2 fold change” value was -0.637.
With RRIRWRPPRLPRPRPRPNEMPRP the “shrunken log2 fold change” value was -0.078.
For RRIRQRPPRLPRPRPRPRAIPRP, the “shrunken log2 fold change” value was 0.109.
For RRIRARPPRLPRPRPRPVWFPRP, the “shrunken log2 fold change” value was 0.334.
For RRIRVRPPRLPRPRPRPGFVPRP, the “shrunken log2 fold change” value was 0.0922.
RRIRYRPPRLPRPRPRPAARPRP was tested, and the “shrunken log2 fold change” value was 0.0304.
RRIRPRPPRLPRPRPRPEMQPRP was tested, and the “shrunken log2 fold change” value was 1.05.
With RRIRCRPPRLPRPRPRPNHAPRP the “shrunken log2 fold change” value was -0.00846.
RRIRRRPPRLPRPRPRPHVEPRP was tested, and the “shrunken log2 fold change” value was -0.162.
In the case of RRIRHRPPRLPRPRPRPPTYPRP, the “shrunken log2 fold change” value is reported as -0.0835.
In the case of RRIRIRPPRLPRPRPRPGYAPRP, the “shrunken log2 fold change” value is reported as -0.192.
In the case of RRIRCRPPRLPRPRPRPPKSPRP, the “shrunken log2 fold change” value is reported as 0.772.
For RRIRFRPPRLPRPRPRPGVNPRP, the “shrunken log2 fold change” value was 0.0431.
For RRIRYRPPRLPRPRPRPSQMPRP, the “shrunken log2 fold change” value was -0.706.
In the case of RRIRNRPPRLPRPRPRPCMTPRP, the “shrunken log2 fold change” value is reported as 0.0616.
RRIRERPPRLPRPRPRPGETPRP was tested, and the “shrunken log2 fold change” value was 0.0954.
RRIRNRPPRLPRPRPRPCFDPRP was tested, and the “shrunken log2 fold change” value was -0.0482.
